Experimental data as given in patent publication US20180153953A1 (CITY OF HOPE, published 2018).

Biological target: T1, Mu-type opioid receptor (Homo sapiens) (Homo sapiens, UniProt P35372 1-400)
T1 construct: Endogenous receptor of PANC-1 cells, PANC-1 MCTS, normal pancreatic epithelial cells and patient tissue (fixed cells or cell lysates); also called MOR; mu opioid receptor
Assay: co-immunoprecipitation: lysates of normal pancreatic epithelial cells or PANC-1 cells, IP anti-MOR, blot anti-CXCR4
Source text: FIG. 3A-3D: There is no co-localization between MOR and CXCR4. FIG. 3A. […] Peak centers are shown. FIG. 3B. […] Peak centers are shown. FIG. 3C. Cross-correlation curves with s.e.m show no co-localization between MOR and CXCR4 in PANC-1 cells (diamonds, N=32 regions from 14 cells), PANC-1 MCTS (triangles, N=20 regions from 12 cells), and normal pancreatic epithelial cells (circles, N=21 regions from 13 cells). In all cases no long-range correlations were observed. FIG. 3D. Cell lysates from either normal pancreatic epithelial cells or PANC-1 cells were immunoprecipitated with anti-MOR antibody and immunoblotted with anti-CXCR4 antibody. CXCR4 was not detected in the MOR immunoprecipitate in either cell line.
Co-immunoprecipitation was performed using the co-immunoprecipitation kit (Pierce) per the manufacturer's protocol. Briefly, MOR antibody was immobilized using a coupling resin. PANC-1 or normal pancreatic epithelial cells were lysed using buffer containing 1% Nonidet P-40, 10% glycerol, 50 mM Tris-Cl, pH 7.4, 300 mM NaCl, 1.5 mM MgCl₂, 1 mM CaCl₂ and protease inhibitor tablets (Pierce) similarly as described before (Rozenfeld and Devi, 2007), pre-cleared and added to the antibody coupled resin and incubated with gentle shaking overnight at 4° C. After thorough washes, the protein sample co-immunoprecipitate was eluted and used for Western blotting with SSTR2 or CXCR4 antibodies. […]

T1 sequence (P35372 whole entry): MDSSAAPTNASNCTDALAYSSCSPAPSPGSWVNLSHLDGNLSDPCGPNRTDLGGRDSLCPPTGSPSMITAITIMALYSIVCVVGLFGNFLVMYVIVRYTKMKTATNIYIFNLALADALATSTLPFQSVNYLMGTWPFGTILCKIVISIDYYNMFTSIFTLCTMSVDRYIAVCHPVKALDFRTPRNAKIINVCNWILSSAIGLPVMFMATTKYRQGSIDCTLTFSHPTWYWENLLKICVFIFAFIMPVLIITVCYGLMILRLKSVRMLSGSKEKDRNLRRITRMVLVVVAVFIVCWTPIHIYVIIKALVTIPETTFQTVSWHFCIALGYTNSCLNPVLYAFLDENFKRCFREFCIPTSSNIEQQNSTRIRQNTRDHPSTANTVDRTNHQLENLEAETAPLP

binding result: no binding
B1: C-X-C motif receptor 4 (CXCR4) (receptor, human, UniProt P61073 1-352, looked up)
chain: MEGISIYTSDNYTEEMGSGDYDSMKEPCFREENANFNKIFLPTIYSIIFLTGIVGNGLVILVMGYQKKLRSMTDKYRLHLSVADLLFVITLPFWAVDAVANWYFGNFLCKAVHVIYTVNLYSSVLILAFISLDRYLAIVHATNSQRPRKLLAEKVVYVGVWIPALLLTIPDFIFANVSEADDRYICDRFYPNDLWVVVFQFQHIMVGLILPGIVILSCYCIIISKLSHSKGHQKRKALKTTVILILAFFACWLPYYIGISIDSFILLEIIKQGCEFENTVHKWISITEALAFFHCCLNPILYAFLGAKFKTSAQHALTSVSRGSSLKILSKGKRGGHSSVSTESESSSFHSS
notes: whole, on cells; Endogenous receptor in fixed cells or cell lysates
